Legend:
[1] = system: azocasein; assay: Effect of pH on the activity and stability of the protease; assay type: biochemical; conditions: for relative activity: 30 minutes
Procedure: (§1) Enzyme activity of the protease was measured according to the method described by Braun & Shmitz (Braun, V. & Schmitz, G., Arch. Microbiol. 124, 55-61, 1980). A substrate solution was prepared by dissolving 0.24 g of azocasein in 10 ml of 50 mM phosphate buffer (pH 7.5). The 300 □ of the substrate solution was mixed with 100 □ of bacterial culture solution and reacted at 37° C. for 30 minutes. Then, 300 □ of 10% trichloride acetate was added to the reaction solution and incubated at ambient temperature for 1 hour. The reaction solution was centrifuged at 7,000 rpm until pellet and supernatant was separated substantially. After adding 30 0 of 10% sodium hydroxide (NaOH) to the supernatant, the absorbance was measured at 420 nm. The enzymatic titer was defined as 1 unit by the 1.0 fold increment of absorbance value.
In order to examine the pH-dependence of the protease of the invention, the inventors prepared various substrate solution with different pH. The each substrate solution was buffered with citrate-phosphate(pH 3.0 to 7.0), sodium phosphate(pH 7.0 to 9.0), Tris-HCl(pH 7.0 to 10.0), and glysine-caustic soda(pH 9.0 to 12.0), respectively. The relative protease activity was measured after mixing enzyme with each of the above substrate solution at 37° C. for 30 minutes. The measurement of the relative protease activity was followed by the method described in Example 3(1).

[2] = Protein eluted from raw skin (leather deliming application); conditions: 0.5% of protease
Procedure: A 20 g of raw skin finely cut into pieces of suitable size and 14 ml of distilled water was mixed in a 50 ml test tube. Then, 0.5% sodium bisulfite and 0.5% ammonium sulfate on the basis of the weight of skin was added thereto and the mixture was incubated for 15 minutes at 26° C. Subsequently, 0.2% of detergent and 0.5% of deliming agent was added thereto and waited for 30 minutes and 1 hour, respectively, before measuring the amount of protein eluted from the skin. In the presence of the 0.5% of protease, the protein eluted amounted to 1054 mg/ml and 1062 mg/ml after 30 minutes and 60 minutes, respectively. In the absence of the protease, the protein eluted amounted to 304.5 mg/ml and 329.5 mg/ml after 30 minute and 60 minutes, respectively.

[3] = system: azocasein; assay: Effect of heat on the activity and stability of the protease; assay type: biochemical
Procedure: as §1
In order to examine the effect of heat on the activity and stability of the protease, the relative enzyme activity was measured at temperatures ranging from 4° C. to 80° C. The measurement of the activity was performed according to the method described in Example 3(1).

[4] = system: azocasein; assay: Effects of salts on the activity of the protease; assay type: biochemical; conditions: for relative activity: 37° C., 4 hours
Procedure: as §1
In order to examine effects of salts on the activity of protease, the relative enzyme activity was measured at 37° C. for 4 hours in the presence of various concentrations of sodium chloride solution ranging from 0 to 1700 mM. The relative activity was measured according to the method described in Example 3(1). For comparison, the protease derived from Serratia marcescens SM6 was used as a control.

[5] = system: albumin, casein, collagen, elastin and hemoglobin; assay: Activity of the protease on various substrates; assay type: biochemical; conditions: all the other substrates including hemoglobin
Procedure: In order to examine the degrading ability of the enzyme against various substrates, the enzyme reactions were performed on substrates such as albumin, casein, collagen, elastin and hemoglobin. […] In 24 hour reaction, all the other substrates including hemoglobin achieved at least 45.

B1: protease: zinc-binding metalloprotease from Aranicola proteolyticus HY-3, amino acid sequence SEQ ID NO. 1, apparent molecular weight about 51.5 kDa (protein, listed as Aranicola proteolyticus)
chain: MQSTKKAIEITESSLAAASSAYNAVDDLLHYHERGNGIQVNGKDSFSTEQAGLFITRENQTWNGYKVFGQPVKLTFSFPDYKFSSTNVAGDTGLSKFSAEQQQQAKLSLQSWSDVANITFTEVGAGQKANITFGNYSQDRPGHYDYDTQAYAFLPNTIYQGQNLGGQTWYNVNQSNVKHPASEDYGRQTFTHEIGHALGLSHPGDYNAGEGNPTYRDASYAEDTREFSLMSYWSETNTGGDNGGHYAAAPLLDDISAIQHLYGANQTTRTGDTVYGFNSNTGRDFLSTTSNPQKVIFAAWDAGGNDTFDFSGYTANQRINLNEKSFSDVGGLKGNVSIAAGVTIENAIGGSGNDVIVGNAANNVLKGGAGNDVLFGGGGADELWGGAGKDTFVFSAVSDSAPGASDWIKDFQKGIDKIDLSFFNQGAQGGDQIHFVDHFSGAAGEALLSYNASNNVSDLALNIGGHQAPDILVKIVGQVDVATDFIV
modifications: BINDING (192) Zn binding site
notes: 1, apparent molecular weight about 51.5 kDa
For B1, the “pH of maximum activity” value ([1]; azocasein substrate) was 8.0, the relative activity ([1]; pH 3.0, 37° C.) was 43% and the relative activity ([1]; pH 4.0, 37° C.) was 66%. For the same molecule, the relative activity ([1]; pH 5.0, 37° C.) was 73%, the relative activity ([1]; pH 5.5, 37° C.) was 77% and the relative activity ([1]; pH 6.0, 37° C.) was 79%. For the same molecule, the relative activity ([1]; pH 7.0, 37° C.) was 81%, the relative activity ([1]; pH 7.5, 37° C.) was 83% and the relative activity ([1]; pH 8.0, 37° C.) was 100%. For the same molecule, the relative activity ([1]; pH 8.5, 37° C.) was 99%, the relative activity ([1]; pH 9.0, 37° C.) was 90% and the relative activity ([1]; pH 9.5, 37° C.) was 80%. The relative activity ([1]; pH 10.0, 37° C.) was 78%, the relative activity ([1]; pH 11.0, 37° C.) was 76% and the relative activity ([1]; pH 12.0, 37° C.) was 71%. The “activity relative to maximum activity” value ([1]; pH of 5.0 to 12.0) was “at least 70%”, the protein eluted from the skin ([2]; after 30 minutes) was 1050 µg/mL and the protein eluted from the skin ([2]; after 60 minutes) was 1060 µg/mL. For the same molecule, the “activity maintained at low temperature” value ([3]; 4° C. to 15° C., relative to maximum activity) was “about a half of the maximum activity”, the “temperature of maximum activity” value ([3]; measured from 4° C. to 80° C.) was 37 °C and the relative activity ([3]; temperature 4 ° C.) was 43%. The relative activity ([3]; temperature 10 ° C.) was 45%, the relative activity ([3]; temperature 15 ° C.) was 50% and the relative activity ([3]; temperature 20 ° C.) was 76%. For the same molecule, the relative activity ([3]; temperature 25 ° C.) was 81%, the relative activity ([3]; temperature 30 ° C.) was 93% and the relative activity ([3]; temperature 37 ° C.) was 100%. The relative activity ([3]; temperature 45 ° C.) was 28%, the relative activity ([3]; temperature 50 ° C.) was 22% and the relative activity ([3]; temperature 60 ° C.) was 20%. For the same molecule, the relative activity ([3]; temperature 70 ° C.) was 14%, the relative activity ([3]; temperature 80 ° C.) was 3% and the Ea value (hydrolysis of azocasein), activation energy in Arrenius plot ([3]; temperatures between 4° C. and 37° C.) was 2.43 kcal/mol. The relative activity ([3]; temperatures between 20° C. to 40° C.) was “at least 75%”, the “activity under high salt concentrations” value ([4]; high salt concentrations) was “retains high activity” and the relative activity ([4]; salt concentration 0 mM NaCl) was 100%. It also gave a relative activity ([4]; salt concentration 170 mM NaCl) of 134%, a relative activity ([4]; salt concentration 340 mM NaCl) of 173% and a relative activity ([4]; salt concentration 510 mM NaCl) of 200%. It also gave a relative activity ([4]; salt concentration 680 mM NaCl) of 215%, a relative activity ([4]; salt concentration 1020 mM NaCl) of 203% and a relative activity ([4]; salt concentration 1360 mM NaCl) of 196%. For the same molecule, the relative activity ([4]; salt concentration 1700 mM NaCl) was 155% and the “degrading ability (albumin in 24 hour reaction defined as 100)” value [5] was “at least 45”.
